Measurements from the Human Domainome abundance scans (Beltran et al. 2025).
± gives the uncertainty stated by the source.

B1: TOX high mobility group box family member 3, residues 256 to 323; numbered along this chain, O15405 (parent)
chain: QKPVSAYALFFRDTQAAIKGQNPNATFGEVSKIVASMWDSLGEEQKQVYKRKTEAAKKEYLKALAAYR

Variants of: B1
Experiment: abundance fitness (aPCA) (normalised: wild type 0, dead -1); higher = more abundant; growth selection in yeast, the domain comes from the species named
Settings: Homo sapiens

Variant | abundance fitness
QKPVSAYALFFRDTQAAIKGQNPNATFGEVSKIVASMWDSLGEEQKQVYKVKTEAAKKEYLKALAAYR [R51V] | -0.072 ± 0.055
QKPVSAYALFFRDTQAAIKGQNPNATFGEVSKIVASMWDSLGEEQKQVYKWKTEAAKKEYLKALAAYR [R51W] | -0.079 ± 0.057
QKPVSAYALFFRDTQAAIKGQNPNATFGEVSKIVASMWDSLGEEQKQVYKYKTEAAKKEYLKALAAYR [R51Y] | -0.199 ± 0.096
QKPVSAYALFFRDTQAAIKGQNPNATFGEVSKIVASMWDSLGEEQKQVYKRATEAAKKEYLKALAAYR [K52A] | -0.368 ± 0.055
QKPVSAYALFFRDTQAAIKGQNPNATFGEVSKIVASMWDSLGEEQKQVYKRCTEAAKKEYLKALAAYR [K52C] | -0.547 ± 0.086
QKPVSAYALFFRDTQAAIKGQNPNATFGEVSKIVASMWDSLGEEQKQVYKRDTEAAKKEYLKALAAYR [K52D] | -0.404 ± 0.078
QKPVSAYALFFRDTQAAIKGQNPNATFGEVSKIVASMWDSLGEEQKQVYKRETEAAKKEYLKALAAYR [K52E] | -0.219 ± 0.07
QKPVSAYALFFRDTQAAIKGQNPNATFGEVSKIVASMWDSLGEEQKQVYKRFTEAAKKEYLKALAAYR [K52F] | -0.93 ± 0.17
QKPVSAYALFFRDTQAAIKGQNPNATFGEVSKIVASMWDSLGEEQKQVYKRGTEAAKKEYLKALAAYR [K52G] | -0.474 ± 0.072
QKPVSAYALFFRDTQAAIKGQNPNATFGEVSKIVASMWDSLGEEQKQVYKRHTEAAKKEYLKALAAYR [K52H] | -0.272 ± 0.066
QKPVSAYALFFRDTQAAIKGQNPNATFGEVSKIVASMWDSLGEEQKQVYKRITEAAKKEYLKALAAYR [K52I] | -0.652 ± 0.081
QKPVSAYALFFRDTQAAIKGQNPNATFGEVSKIVASMWDSLGEEQKQVYKRMTEAAKKEYLKALAAYR [K52M] | -0.373 ± 0.074
QKPVSAYALFFRDTQAAIKGQNPNATFGEVSKIVASMWDSLGEEQKQVYKRNTEAAKKEYLKALAAYR [K52N] | -0.133 ± 0.067
QKPVSAYALFFRDTQAAIKGQNPNATFGEVSKIVASMWDSLGEEQKQVYKRPTEAAKKEYLKALAAYR [K52P] | -0.303 ± 0.079
QKPVSAYALFFRDTQAAIKGQNPNATFGEVSKIVASMWDSLGEEQKQVYKRQTEAAKKEYLKALAAYR [K52Q] | -0.291 ± 0.071
QKPVSAYALFFRDTQAAIKGQNPNATFGEVSKIVASMWDSLGEEQKQVYKRRTEAAKKEYLKALAAYR [K52R] | 0.008 ± 0.042
QKPVSAYALFFRDTQAAIKGQNPNATFGEVSKIVASMWDSLGEEQKQVYKRSTEAAKKEYLKALAAYR [K52S] | -0.145 ± 0.04
QKPVSAYALFFRDTQAAIKGQNPNATFGEVSKIVASMWDSLGEEQKQVYKRTTEAAKKEYLKALAAYR [K52T] | -0.426 ± 0.065
QKPVSAYALFFRDTQAAIKGQNPNATFGEVSKIVASMWDSLGEEQKQVYKRVTEAAKKEYLKALAAYR [K52V] | -0.584 ± 0.072
QKPVSAYALFFRDTQAAIKGQNPNATFGEVSKIVASMWDSLGEEQKQVYKRWTEAAKKEYLKALAAYR [K52W] | -0.617 ± 0.1

Variant | abundance fitness
QKPVSAYALFFRDTQAAIKGQNPNATFGEVSKIVASMWDSLGEEQKQVYKRYTEAAKKEYLKALAAYR [K52Y] | -0.28 ± 0.073
QKPVSAYALFFRDTQAAIKGQNPNATFGEVSKIVASMWDSLGEEQKQVYKRKAEAAKKEYLKALAAYR [T53A] | 0.136 ± 0.053
QKPVSAYALFFRDTQAAIKGQNPNATFGEVSKIVASMWDSLGEEQKQVYKRKCEAAKKEYLKALAAYR [T53C] | -0.092 ± 0.063
QKPVSAYALFFRDTQAAIKGQNPNATFGEVSKIVASMWDSLGEEQKQVYKRKDEAAKKEYLKALAAYR [T53D] | -0.022 ± 0.066
QKPVSAYALFFRDTQAAIKGQNPNATFGEVSKIVASMWDSLGEEQKQVYKRKEEAAKKEYLKALAAYR [T53E] | 0.257 ± 0.063
QKPVSAYALFFRDTQAAIKGQNPNATFGEVSKIVASMWDSLGEEQKQVYKRKFEAAKKEYLKALAAYR [T53F] | 0.157 ± 0.11
QKPVSAYALFFRDTQAAIKGQNPNATFGEVSKIVASMWDSLGEEQKQVYKRKGEAAKKEYLKALAAYR [T53G] | 0.073 ± 0.049
QKPVSAYALFFRDTQAAIKGQNPNATFGEVSKIVASMWDSLGEEQKQVYKRKHEAAKKEYLKALAAYR [T53H] | 0.12 ± 0.091
QKPVSAYALFFRDTQAAIKGQNPNATFGEVSKIVASMWDSLGEEQKQVYKRKKEAAKKEYLKALAAYR [T53K] | 0.001 ± 0.098
QKPVSAYALFFRDTQAAIKGQNPNATFGEVSKIVASMWDSLGEEQKQVYKRKLEAAKKEYLKALAAYR [T53L] | -0.09 ± 0.038
QKPVSAYALFFRDTQAAIKGQNPNATFGEVSKIVASMWDSLGEEQKQVYKRKMEAAKKEYLKALAAYR [T53M] | -0.046 ± 0.096
QKPVSAYALFFRDTQAAIKGQNPNATFGEVSKIVASMWDSLGEEQKQVYKRKNEAAKKEYLKALAAYR [T53N] | -0.104 ± 0.056
QKPVSAYALFFRDTQAAIKGQNPNATFGEVSKIVASMWDSLGEEQKQVYKRKPEAAKKEYLKALAAYR [T53P] | -0.326 ± 0.076
QKPVSAYALFFRDTQAAIKGQNPNATFGEVSKIVASMWDSLGEEQKQVYKRKREAAKKEYLKALAAYR [T53R] | -0.111 ± 0.043
QKPVSAYALFFRDTQAAIKGQNPNATFGEVSKIVASMWDSLGEEQKQVYKRKSEAAKKEYLKALAAYR [T53S] | 0.113 ± 0.048
QKPVSAYALFFRDTQAAIKGQNPNATFGEVSKIVASMWDSLGEEQKQVYKRKVEAAKKEYLKALAAYR [T53V] | 0.146 ± 0.047
QKPVSAYALFFRDTQAAIKGQNPNATFGEVSKIVASMWDSLGEEQKQVYKRKWEAAKKEYLKALAAYR [T53W] | -0.152 ± 0.055
QKPVSAYALFFRDTQAAIKGQNPNATFGEVSKIVASMWDSLGEEQKQVYKRKYEAAKKEYLKALAAYR [T53Y] | 0.276 ± 0.094
QKPVSAYALFFRDTQAAIKGQNPNATFGEVSKIVASMWDSLGEEQKQVYKRKTCAAKKEYLKALAAYR [E54C] | -0.244 ± 0.084
QKPVSAYALFFRDTQAAIKGQNPNATFGEVSKIVASMWDSLGEEQKQVYKRKTDAAKKEYLKALAAYR [E54D] | -0.054 ± 0.068
